According to patent US20190202883A1 (Takeda / Millennium, published 2019):
Values belong to the binder of their own block, whether it stands above or below them. Square brackets hold non-standard residues; d marks the D form. Side chains are listed from the residue outwards. Ends that are not written are not given here. Phe(2-F) = N[C@@H](Cc1ccccc1F)C(=O)O; NMeY = CN[C@@H](Cc1ccc(O)cc1)C(=O)O; αMeF = C[C@](N)(Cc1ccccc1)C(=O)O; Iva = CC[C@](C)(N)C(=O)O; Oda = not defined here; Aib = CC(C)(N)C(=O)O

Key:
Assay in all cases: cell-based or functional assay
[1] = target: T1, human NPY2R (human, UniProt P49146 1-381)
T1 sequence (looked up): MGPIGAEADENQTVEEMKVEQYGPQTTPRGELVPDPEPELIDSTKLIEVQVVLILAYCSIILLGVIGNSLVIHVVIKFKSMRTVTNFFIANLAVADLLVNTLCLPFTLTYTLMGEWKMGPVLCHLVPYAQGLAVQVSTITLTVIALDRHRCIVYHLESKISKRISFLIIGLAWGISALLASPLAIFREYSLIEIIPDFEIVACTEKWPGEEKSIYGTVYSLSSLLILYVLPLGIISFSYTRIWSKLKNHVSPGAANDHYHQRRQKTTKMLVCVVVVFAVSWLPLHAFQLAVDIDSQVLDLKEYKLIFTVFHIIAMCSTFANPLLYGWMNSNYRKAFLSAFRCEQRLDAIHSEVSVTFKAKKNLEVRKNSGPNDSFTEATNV

[2] = target: T2, human GIPR (human, UniProt P48546 22-466)
T2 sequence (looked up): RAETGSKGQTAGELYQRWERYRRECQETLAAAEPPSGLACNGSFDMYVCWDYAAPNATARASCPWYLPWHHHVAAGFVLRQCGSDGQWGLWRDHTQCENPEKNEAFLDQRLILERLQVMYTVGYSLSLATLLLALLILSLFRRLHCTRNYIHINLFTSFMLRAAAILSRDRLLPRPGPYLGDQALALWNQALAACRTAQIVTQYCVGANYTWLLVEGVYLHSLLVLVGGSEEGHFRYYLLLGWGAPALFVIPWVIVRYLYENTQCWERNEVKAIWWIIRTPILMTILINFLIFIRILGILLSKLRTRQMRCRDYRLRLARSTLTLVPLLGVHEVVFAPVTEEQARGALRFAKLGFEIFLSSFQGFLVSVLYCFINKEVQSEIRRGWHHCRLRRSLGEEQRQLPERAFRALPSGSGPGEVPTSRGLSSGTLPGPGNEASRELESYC

[3] = target: human GLP-1R (human, UniProt P43220 24-463)

B3: H-Tyr-Aib-Glu-Gly-Thr-αMePhe-Thr-Ser-Asp-Lys(-Gly-Gly-Gly-Gly-Oda)-Ser-Ile-Aib-Leu-Glu-Lys-Gln-Arg-Gln-Iva-Glu-Phe-Val-Arg-His-Leu-Leu-Asn-Lys-Aib-Thr-Arg-Gln-A … (peptide)
peptide: H-Y[Aib]EGT[αMeF]TSDK([Gly-Gly-Gly-Gly-Oda])SI[Aib]LEKQRQ[Iva]EFVRHLLNK[Aib]TRQRY-NH2
modifications: reading uncertain; also: printed as H-Tyr-Aib-Glu-Gly-Thr-αMePhe-Thr-Ser-Asp-Lys(-Gly-Gly-Gly-Gly-Oda)-Ser-Ile-Aib-Leu-Glu-Lys-Gln-Arg-Gln-Iva-Glu-Phe-Val-Arg-His-Leu-Leu-Asn-Lys-Aib-Thr-Arg-Gln-Arg-Tyr-NH2
- Agonist activity (EC50), Cre-luc reporter assay [1]: 1.6 nM
- Agonist activity (EC50), Cre-luc reporter assay [2]: 170 pM
- Agonist activity (EC50), Cre-luc reporter assay [3]: 240 pM

Binder: H-Y[Aib]EGT[αMeF]TSDK([Gly-Gly-Gly-Gly-Pal])[Aib]I[Aib]LDKQRQ[Iva]EFVRHLLNK[Aib]TRQRY-NH2
- Agonist activity (EC50), Cre-luc reporter assay [1]: 0.1 nM
- Agonist activity (EC50), Cre-luc reporter assay [2]: 68 pM
- Agonist activity (EC50), Cre-luc reporter assay [3]: 82 pM

Binder: H-Y[Aib]EGT[αMeF]TSDK([Gly-Gly-Gly-Gly-Pal])AI[Aib]LEKQRQ[Iva]EFVRHLLNK[Aib]TRQRY-NH2
- Agonist activity (EC50), Cre-luc reporter assay [1]: 0.023 nM
- Agonist activity (EC50), Cre-luc reporter assay [2]: 42 pM
- Agonist activity (EC50), Cre-luc reporter assay [3]: 45 pM

Binder: H-Y[Aib]EGT[αMeF]TSDK([Gly-Gly-Gly-Gly-Pal])[Aib]I[Aib]LDKQAQ[Iva]EFVRHLLNK[Aib]TRQR[Phe(2-F)]-NH2
- Agonist activity (EC50), Cre-luc reporter assay [1]: 0.031 nM
- Agonist activity (EC50), Cre-luc reporter assay [2]: 35 pM
- Agonist activity (EC50), Cre-luc reporter assay [3]: 14 pM

Other lines, results leading:

- Agonist activity (EC50), Cre-luc reporter assay [1]: 1 nM
- Agonist activity (EC50), Cre-luc reporter assay [2]: 290 pM
- Agonist activity (EC50), Cre-luc reporter assay [3]: 1500 pM
B1: Me-Tyr-Aib-Glu-Gly-Thr-αMePhe-Thr-Ser-Asp-Lys(-Gly-Gly-Gly-Gly-Oda)-Aib-Ile-Aib-Leu-Asp-Lys-Gln-Arg-Gln-Iva-Glu-Phe-Val-Arg-His-Leu-Leu-Asn-Lys-Aib-Thr-Arg-Gln- … (peptide)
peptide: Me-Y[Aib]EGT[αMeF]TSDK([Gly-Gly-Gly-Gly-Oda])[Aib]I[Aib]LDKQRQ[Iva]EFVRHLLNK[Aib]TRQR[Phe(2-F)]-NH2
modifications: reading uncertain; also: printed as Me-Tyr-Aib-Glu-Gly-Thr-αMePhe-Thr-Ser-Asp-Lys(-Gly-Gly-Gly-Gly-Oda)-Aib-Ile-Aib-Leu-Asp-Lys-Gln-Arg-Gln-Iva-Glu-Phe-Val-Arg-His-Leu-Leu-Asn-Lys-Aib-Thr-Arg-Gln-Arg-Phe(2-F)-NH2

- Agonist activity (EC50), Cre-luc reporter assay [1]: 2 nM
- Agonist activity (EC50), Cre-luc reporter assay [2]: 250 pM
- Agonist activity (EC50), Cre-luc reporter assay [3]: 1400 pM
B2: Me-Tyr-Aib-Glu-Gly-Thr-αMePhe-Thr-Ser-Asp-Lys(-Gly-Gly-Gly-Gly-Oda)-Aib-Ile-Aib-Leu-Asp-Lys-Gln-Arg-Gln-Iva-Glu-Phe-Val-Arg-His-Leu-Leu-Asn-Lys-Aib-Thr-Arg-Gln- … (peptide)
peptide: Me-Y[Aib]EGT[αMeF]TSDK([Gly-Gly-Gly-Gly-Oda])[Aib]I[Aib]LDKQRQ[Iva]EFVRHLLNK[Aib]TRQRY-NH2
modifications: reading uncertain; also: printed as Me-Tyr-Aib-Glu-Gly-Thr-αMePhe-Thr-Ser-Asp-Lys(-Gly-Gly-Gly-Gly-Oda)-Aib-Ile-Aib-Leu-Asp-Lys-Gln-Arg-Gln-Iva-Glu-Phe-Val-Arg-His-Leu-Leu-Asn-Lys-Aib-Thr-Arg-Gln-Arg-Tyr-NH2

- Agonist activity (EC50), Cre-luc reporter assay [1]: 0.12 nM
- Agonist activity (EC50), Cre-luc reporter assay [2]: 93 pM
- Agonist activity (EC50), Cre-luc reporter assay [3]: 130 pM
Binder: Me-Y[Aib]EGT[αMeF]TSDK([Gly-Gly-Gly-Gly-Pal])[Aib]I[Aib]LDKQRQ[Iva]EFVRHLLNK[Aib]TRQR[Phe(2-F)]-NH2

- Agonist activity (EC50), Cre-luc reporter assay [1]: 1.7 nM
- Agonist activity (EC50), Cre-luc reporter assay [2]: 400 pM
- Agonist activity (EC50), Cre-luc reporter assay [3]: 2300 pM
B4: Me-Tyr-Aib-Glu-Gly-Thr-αMePhe-Thr-Ser-Asp-Lys(-Gly-Gly-Gly-Gly-Oda)-Ala-Ile-Aib-Leu-Glu-Lys-Gln-Arg-Gln-Iva-Glu-Phe-Val-Arg-His-Leu-Leu-Asn-Lys-Aib-Thr-Arg-Gln- … (peptide)
peptide: [NMeY][Aib]EGT[αMeF]TSDK([Gly-Gly-Gly-Gly-Oda])AI[Aib]LEKQRQ[Iva]EFVRHLLNK[Aib]TRQRY-NH2
modifications: reading uncertain; also: printed as Me-Tyr-Aib-Glu-Gly-Thr-αMePhe-Thr-Ser-Asp-Lys(-Gly-Gly-Gly-Gly-Oda)-Ala-Ile-Aib-Leu-Glu-Lys-Gln-Arg-Gln-Iva-Glu-Phe-Val-Arg-His-Leu-Leu-Asn-Lys-Aib-Thr-Arg-Gln-Arg-Tyr-NH2

- Agonist activity (EC50), Cre-luc reporter assay [1]: 1.5 nM
- Agonist activity (EC50), Cre-luc reporter assay [2]: 530 pM
- Agonist activity (EC50), Cre-luc reporter assay [3]: 1100 pM
B5: Me-Tyr-Aib-Glu-Gly-Thr-αMePhe-Thr-Ser-Asp-Lys(-Gly-Gly-Gly-Gly-Oda)-Aib-Ile-Aib-Leu-Glu-Lys-Gln-Arg-Gln-Iva-Glu-Phe-Val-Arg-His-Leu-Leu-Asn-Lys-Aib-Thr-Arg-Gln- … (peptide)
peptide: Me-Y[Aib]EGT[αMeF]TSDK([Gly-Gly-Gly-Gly-Oda])[Aib]I[Aib]LEKQRQ[Iva]EFVRHLLNK[Aib]TRQRY-NH2
modifications: reading uncertain; also: printed as Me-Tyr-Aib-Glu-Gly-Thr-αMePhe-Thr-Ser-Asp-Lys(-Gly-Gly-Gly-Gly-Oda)-Aib-Ile-Aib-Leu-Glu-Lys-Gln-Arg-Gln-Iva-Glu-Phe-Val-Arg-His-Leu-Leu-Asn-Lys-Aib-Thr-Arg-Gln-Arg-Tyr-NH2
